The target of assay [1] is gp42 wild-type (1-223) (Epstein-Barr virus) (UniProt P03205). The assay can be described thus: flow cytometry, stable CHO cells kept in 10 µg/ml puromycin, mAb at 1:200, goat anti-mouse IgG Alexa Fluor 488. Background: Flow cytometry measures light scatter and fluorescence of single cells or particles in a stream.
Assay [2] deals with gp350-F: EBV gp350 (1-864) ectodomain fused to the Newcastle disease virus fusion protein (NDV-F) tr (Epstein-Barr virus; Newcastle disease virus) (UniProt P03200).
Assay [3] shares this target. The assay is described as follows: flow cytometry, […], mAb at 1:200, […].
The target is the same in assay [4]. The source holds these as a separate data set.

Where two headings read alike, the source gives them in different places.

Chain of UniProt P03200 (P03200 1-864): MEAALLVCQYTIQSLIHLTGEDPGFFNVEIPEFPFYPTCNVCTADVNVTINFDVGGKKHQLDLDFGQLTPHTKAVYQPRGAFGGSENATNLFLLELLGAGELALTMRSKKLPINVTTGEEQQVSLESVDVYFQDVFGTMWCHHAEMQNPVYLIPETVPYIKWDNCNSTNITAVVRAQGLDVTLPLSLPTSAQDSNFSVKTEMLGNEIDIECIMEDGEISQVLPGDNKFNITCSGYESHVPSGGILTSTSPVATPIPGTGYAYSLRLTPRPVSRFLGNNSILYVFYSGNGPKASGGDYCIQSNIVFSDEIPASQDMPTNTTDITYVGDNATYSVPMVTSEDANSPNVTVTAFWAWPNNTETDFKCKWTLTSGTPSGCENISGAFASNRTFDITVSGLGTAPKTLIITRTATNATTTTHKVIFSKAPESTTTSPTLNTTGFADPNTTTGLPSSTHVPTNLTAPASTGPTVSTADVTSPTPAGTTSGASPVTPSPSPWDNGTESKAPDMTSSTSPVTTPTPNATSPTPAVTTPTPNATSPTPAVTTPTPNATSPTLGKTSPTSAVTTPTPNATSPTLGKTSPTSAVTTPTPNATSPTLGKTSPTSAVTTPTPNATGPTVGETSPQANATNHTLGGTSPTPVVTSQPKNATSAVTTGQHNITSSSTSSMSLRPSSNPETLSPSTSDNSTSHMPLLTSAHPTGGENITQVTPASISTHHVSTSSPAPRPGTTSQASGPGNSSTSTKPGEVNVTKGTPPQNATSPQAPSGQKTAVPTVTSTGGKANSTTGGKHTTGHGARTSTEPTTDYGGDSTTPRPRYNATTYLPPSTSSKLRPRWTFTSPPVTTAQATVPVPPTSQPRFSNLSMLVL
Chain of UniProt P03205 (P03205 whole entry, the tested form may be a part): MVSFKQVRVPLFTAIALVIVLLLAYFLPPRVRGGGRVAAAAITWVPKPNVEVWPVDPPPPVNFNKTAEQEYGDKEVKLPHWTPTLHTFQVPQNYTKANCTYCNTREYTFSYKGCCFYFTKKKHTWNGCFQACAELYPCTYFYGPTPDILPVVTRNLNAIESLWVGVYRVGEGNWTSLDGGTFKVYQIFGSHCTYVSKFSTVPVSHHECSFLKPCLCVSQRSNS

As for anti-gp42 mAb (F-2-1) (antibody), the percent positive cells in assay [1] is above 90%.

For anti-gp350 mAb 2L10 (antibody), in assay [2], the percent positive cells was above 90%.

Consider “anti-gp350 monoclonal antibody (mAb) 72A1”, for which the percent positive cells in assay [3] is above 90%; in assay [4], 95%.

The values are drawn from patent US20240358813A1.
